# Test results reported in PMC10657439 (Cell Death and Differentiation, 2023).
# T1: His-Fas (His-tagged human Fas extracellular domain, wild type) (human)
# T1 chain: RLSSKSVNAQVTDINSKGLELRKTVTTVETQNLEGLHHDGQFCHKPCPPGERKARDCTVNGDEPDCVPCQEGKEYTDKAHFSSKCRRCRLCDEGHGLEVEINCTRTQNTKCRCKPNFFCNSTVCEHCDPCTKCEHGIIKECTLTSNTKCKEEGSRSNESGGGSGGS
# T2: Fc-tagged Fas (recombinant extracellular domain of Fas with a C-terminal Fc) (human, UniProt P25445 26-173)
# T2 construct: human Fas (CD95) extracellular domain; also called Fas-IgG1 Fc; IgG4-Fc-tagged Fas; source: FreeStyle CHO-S cells, purified (protein A columns); not shown: Fc (IgG4 in the methods, IgG1 in the results), C-terminal, kept
# T2 sequence (looked up): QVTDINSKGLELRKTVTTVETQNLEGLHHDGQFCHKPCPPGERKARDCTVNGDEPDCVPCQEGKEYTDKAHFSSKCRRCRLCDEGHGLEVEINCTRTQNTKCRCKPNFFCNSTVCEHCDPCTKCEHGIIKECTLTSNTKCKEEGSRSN
# How the values were obtained:
# [1] = target: Fas (CD95), endogenous on human cells (human (endogenous in OVCAR3, Jurkat, PBMC-derived T cells)) (UniProt P25445)
# [2] = target: Fas R86A mutant tested for E09 binding (human) (UniProt P25445); assay: ELISA
# [3] = target: His-Fas (His-tagged human Fas extracellular domain, wild type) (human); assay: ELISA
# [4] = target: His-Fas^R87A (human); assay: ELISA
# [5] = target: T1, His-Fas (His-tagged human Fas …); assay: BLI
# [6] = target: T1, His-Fas (His-tagged human Fas …); assay: BLI
# [7] = target: T2, Fc-tagged Fas (recombinant …); assay: ELISA; Fc-tagged Fas (2 μg/ml) coated on 96-well plates; His-tagged FasL (single or tandem) in 2-fold dilutions from 50 to 0.048 nM, 1 h at 37 °C; conditions: both partners purified
# [8] = target: the molecule itself; assay: non-reducing, partially denaturing SDS-PAGE with anti-His immunoblot; purified His-tagged FasL added to Jurkat cells in culture wells, 30 min; soup and total lysates together; FasL trimer formation
molecule,measurement,setting,value
"His_FasL^TL1A (His-tagged FasL with the cognate region of TL1A, DTYGIV to HELGLA) (ligand)","cytotoxic activity against T cells (cell survival assay, Fig. 3F, G)",[1],> 70%
CH11 IgG1,Kd,[2],2.02 nM
same,Kd,[3],0.983 nM
same,Kd,[4],2.2 nM
"DB-FasL (protein, Wild-type FasL ectodomain fused to the C-terminus (CH3) of the idarucizumab (anti-dabigatran) IgG1 heavy chain, one FasL per heavy chain. The IgG carrier and linker are left out because they do not bind Fas. Limits are taken from the sister constructs His-FasL WT and E09-FasL WT printed in the tables (PSPPPEKKEL...GLYKL).) PSPPPEKKELRKVAHLTGKSNSRSMPLEWEDTYGIVLLSGVKYKKGGLVINETGLYFVYSKVYFRGQSCNNLPLSHKVYMRNSKYPQDLVMMEGKMMSYCTTGQMWARSSYLGAVFNLTSADHLYVNVSELSLVNFEESQTFFGLYKL",Kd,[5],60.6 nM
same,koff,[6],0.0049 s⁻¹
"E09 IgG1 (preclinical Fas agonist antibody) (antibody, V domains shown) VH: QLQLQESGPGLVKPSETLSLTCTVSGASISANSYYGVWVRQSPGKGLEWVGSIAYRGNSNSGSTYYNPSLKSRATVSVDTSKNQVSLRLTSVTAADTALYYCARRQLLDDGTGYQWAAFDVWGQGTMVTVSS VL: QSVLTQPPSVSEAPRQTVTISCSGNSFNIGRYPVNWYQQLPGKAPKLLIYYNNLRFSGVSDRFSGSKSGTSASLAIRDLLSEDEADYYCSTWDDTLKGWVFGGGTKVTVLG",Kd,[5],0.377 nM
"His_FasL^WT (N-terminal His-tagged human FasL, wild type) (ligand, linker between the His tag and FasL; also called WT FasL; His-tagged FasL; source: FreeStyle CHO-S cells, transfected, purified (Ni-Sepharose HisTrap); not shown: His7, N-terminal, kept) GGSPSPPPEKKELRKVAHLTGKSNSRSMPLEWEDTYGIVLLSGVKYKKGGLVINETGLYFVYSKVYFRGQSCNNLPLSHKVYMRNSKYPQDLVMMEGKMMSYCTTGQMWARSSYLGAVFNLTSADHLYVNVSELSLVNFEESQTFFGLYKL",binding result,[7],binds
same,stoichiometry N,[8],3
"His_FasL^E270A (ligand, human, linker between the His tag and FasL; source: FreeStyle CHO-S cells, transfected, purified (Ni-Sepharose HisTrap); not shown: His7, N-terminal, kept) GGSPSPPPEKKELRKVAHLTGKSNSRSMPLEWEDTYGIVLLSGVKYKKGGLVINETGLYFVYSKVYFRGQSCNNLPLSHKVYMRNSKYPQDLVMMEGKMMSYCTTGQMWARSSYLGAVFNLTSADHLYVNVSELSLVNFAESQTFFGLYKL",binding result,[7],binds
"His_FasL^E271A (ligand, human, linker between the His tag and FasL; also called A271; source: FreeStyle CHO-S cells, transfected, purified (Ni-Sepharose HisTrap); not shown: His7, N-terminal, kept) GGSPSPPPEKKELRKVAHLTGKSNSRSMPLEWEDTYGIVLLSGVKYKKGGLVINETGLYFVYSKVYFRGQSCNNLPLSHKVYMRNSKYPQDLVMMEGKMMSYCTTGQMWARSSYLGAVFNLTSADHLYVNVSELSLVNFEASQTFFGLYKL",stoichiometry N,[8],3
"His_FasL^D164A (printed as His_FasL^D163A in Table 1) (ligand, human, linker between the His tag and FasL; source: FreeStyle CHO-S cells, transfected, purified (Ni-Sepharose HisTrap); not shown: His7, N-terminal, kept) GGSPSPPPEKKELRKVAHLTGKSNSRSMPLEWEATYGIVLLSGVKYKKGGLVINETGLYFVYSKVYFRGQSCNNLPLSHKVYMRNSKYPQDLVMMEGKMMSYCTTGQMWARSSYLGAVFNLTSADHLYVNVSELSLVNFEESQTFFGLYKL",binding result,[7],binds
"His_FasL^R156G (ALPS mutation) (ligand, human, linker between the His tag and FasL; source: FreeStyle CHO-S cells, transfected, purified (Ni-Sepharose HisTrap); not shown: His7, N-terminal, kept) GGSPSPPPEKKELRKVAHLTGKSNSGSMPLEWEDTYGIVLLSGVKYKKGGLVINETGLYFVYSKVYFRGQSCNNLPLSHKVYMRNSKYPQDLVMMEGKMMSYCTTGQMWARSSYLGAVFNLTSADHLYVNVSELSLVNFEESQTFFGLYKL",binding result,[7],binds
"His_FasL^E163A (ligand, human, linker between the His tag and FasL; also called A163; source: FreeStyle CHO-S cells, transfected, purified (Ni-Sepharose HisTrap); not shown: His7, N-terminal, kept) GGSPSPPPEKKELRKVAHLTGKSNSRSMPLEWADTYGIVLLSGVKYKKGGLVINETGLYFVYSKVYFRGQSCNNLPLSHKVYMRNSKYPQDLVMMEGKMMSYCTTGQMWARSSYLGAVFNLTSADHLYVNVSELSLVNFEESQTFFGLYKL",stoichiometry N,[8],3
"His_FasL^WT-A247E (tandem: wild-type FasL unit and A247E unit) (ligand, human, linker between the His tag and the first FasL unit; linker between the two FasL units; source: CHO expression system, purified (HisTrap Ni Sepharose); not shown: His7, N-terminal, kept) GGSPSPPPEKKELRKVAHLTGKSNSRSMPLEWEDTYGIVLLSGVKYKKGGLVINETGLYFVYSKVYFRGQSCNNLPLSHKVYMRNSKYPQDLVMMEGKMMSYCTTGQMWARSSYLGAVFNLTSADHLYVNVSELSLVNFEESQTFFGLYKLGGGSGGGSGGGSPSPPPEKKELRKVAHLTGKSNSRSMPLEWEDTYGIVLLSGVKYKKGGLVINETGLYFVYSKVYFRGQSCNNLPLSHKVYMRNSKYPQDLVMMEGKMMSYCTTGQMWARSSYLGEVFNLTSADHLYVNVSELSLVNFEESQTFFGLYKL",binding result,[7],binds
"His_FasL^WT-G277S (tandem: wild-type FasL unit and G277S unit) (ligand, human, linker between the His tag and the first FasL unit; linker between the two FasL units; source: CHO expression system, purified (HisTrap Ni Sepharose); not shown: His7, N-terminal, kept) GGSPSPPPEKKELRKVAHLTGKSNSRSMPLEWEDTYGIVLLSGVKYKKGGLVINETGLYFVYSKVYFRGQSCNNLPLSHKVYMRNSKYPQDLVMMEGKMMSYCTTGQMWARSSYLGAVFNLTSADHLYVNVSELSLVNFEESQTFFGLYKLGGGSGGGSGGGSPSPPPEKKELRKVAHLTGKSNSRSMPLEWEDTYGIVLLSGVKYKKGGLVINETGLYFVYSKVYFRGQSCNNLPLSHKVYMRNSKYPQDLVMMEGKMMSYCTTGQMWARSSYLGAVFNLTSADHLYVNVSELSLVNFEESQTFFSLYKL",binding result,[7],binds
